# According to PMC12319226 (Frontiers in Bioinformatics, 2025):
# Substitutions are numbered along the chain they refer to.
# B1: mAb 1E6 (human) (antibody, V domains shown)
# VH: EVQLVQSGAEVKKPGSSVKVSCKASGGTVIDYPITWVRQAPGQGLEWVGGFVPLFRTSNYGQKFQGRVTITADKSTSTASMELNSLTSEDTAIYYCARGDTAMGPFDYWGQGTLVTVSS
# VL: SYVLTQPPSLSVAPGKTATLTCGGNNIAGKTVHWYQQRPGQAPVLVISYDSDRPSGIPERFSGSNSANTATLTISRVEAGDEADYYCQVWDRNSDHWVFGGGTKLTVL
# notes: source: Expi293, purified (MabSelect SuRe, SEC); copies: 2 + 2
# B2: mAb 4B3 (human) (antibody, V domains shown)
# VH: QVQLVQSGGGLVKPGGSLRLSCAASGFPFSSYYMSWIRQAPGKGLEWVSDINNSGNVKEYADFVKGRLTISRDNVKNSMYLHMNSLRVEDTAVYYCARNRGRFDVWGQGTLVTVSA
# VL: EIVMTQSPGTLSLSPGETATLSCRASQMISSPFLAWYQQRRGQAPRLLIYGASTRATDTPDRFRGSGSGTDFILTISRLEPEDFAVYYCQYYDDSPFTFGQGTKLEIK
# notes: also called 4B3-2; source: Expi293, purified (MabSelect SuRe, SEC); copies: 2 + 2
# B3: chimeric antibody h12C1 (antibody, V domains shown)
# VH: QVQLQESGPELVKPGASVKISCKASGYSFSDYNMSWVKQSNGKSLEWIGIIDPKYGTINYNQKFKGKATLTVDQASSTAYMQLNSLTSEDSAVYYCVRDYYGSSYFDYWGQGTTLTVSS
# VL: DIVLTQSPSSIYASLGERVTLTCKASQDIHNYLNWFQQKPGKSPKTLIYRANRLVDGVPSRFSGGGSGQDYSLTISSLEFEDIGIYYCLQYDEFPPTFGGGTRLEIK
# notes: also called humanized 12C1; source: Expi293, purified (MabSelect SuRe, SEC); copies: 2 + 2
# Tests used:
# Assay in all cases: BLI
# Conditions in all cases: both partners purified
# [1] = target: T1, factor H binding protein variant 1.1 (Neisseria meningitidis serogroup B …, UniProt Q9JXV4)
# T1 construct: also called fHbp v1.1; v1.1 Control (0001)
# fHbp m001820 = target: T2, fHbp m001820 (Neisseria meningitidis fHbp v3.28, …, point mutant)
# T2 chain: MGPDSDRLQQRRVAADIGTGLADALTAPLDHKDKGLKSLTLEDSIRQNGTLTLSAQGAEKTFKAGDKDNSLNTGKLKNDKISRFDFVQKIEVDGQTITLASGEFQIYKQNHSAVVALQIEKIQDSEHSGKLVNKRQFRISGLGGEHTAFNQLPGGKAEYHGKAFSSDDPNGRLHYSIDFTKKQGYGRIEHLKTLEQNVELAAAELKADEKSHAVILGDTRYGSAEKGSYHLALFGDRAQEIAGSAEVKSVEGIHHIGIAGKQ
# fHbp m001848 = target: T3, fHbp m001848 (Neisseria meningitidis, engineered fHbp …, chimera)
# T3 chain: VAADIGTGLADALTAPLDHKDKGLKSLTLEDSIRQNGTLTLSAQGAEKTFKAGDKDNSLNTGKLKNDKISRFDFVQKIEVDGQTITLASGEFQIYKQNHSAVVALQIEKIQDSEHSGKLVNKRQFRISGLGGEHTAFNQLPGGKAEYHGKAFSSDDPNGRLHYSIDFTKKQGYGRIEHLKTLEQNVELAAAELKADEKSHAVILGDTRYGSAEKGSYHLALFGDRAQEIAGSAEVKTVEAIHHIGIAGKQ
# fHbp m001941 = target: T4, fHbp m001941 (Neisseria meningitidis fHbp v3.28, …, chimera)
# T4 chain: T2 chain with S223G, S249T, V250D, E251N, G252A
# fHbp m001213 = target: T5, fHbp m001213 (Neisseria meningitidis fHbp v3.28-based …, point mutant)
# T5 chain: T2 chain with Y221L, S223G, S249T, V250D, E251N, G252A
# fHbp m001529 = target: T6, fHbp m001529 (Neisseria meningitidis, fHbp …, point mutant)
# T6 chain: T2 chain with Y221L, G222N, S223Q, S249T, E251V
# fHbp m001604 = target: T7, fHbp m001604 (Neisseria meningitidis, fHbp …, point mutant)
# T7 chain: T2 chain with Y221L, G222N, S249T
# fHbp m001608 = target: T8, fHbp m001608 (Neisseria meningitidis, fHbp …, point mutant)
# T8 chain: T2 chain with Y221L, G222N, S249T, E251N, G252S
# [2] = target: T9, factor H binding protein variant 3.28 (Neisseria meningitidis, fHbp variant …)
# T9 construct: also called fHbp v3.28; v3.28 Control (0002)
# T9 chain: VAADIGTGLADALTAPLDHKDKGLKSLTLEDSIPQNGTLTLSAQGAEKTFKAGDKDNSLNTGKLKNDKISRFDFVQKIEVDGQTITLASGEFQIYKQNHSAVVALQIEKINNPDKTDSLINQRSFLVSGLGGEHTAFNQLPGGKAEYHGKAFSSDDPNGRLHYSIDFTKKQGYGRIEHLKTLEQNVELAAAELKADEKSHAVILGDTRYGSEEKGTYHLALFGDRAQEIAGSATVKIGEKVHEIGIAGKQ
# [3] = target: T1, factor H binding protein variant 1.1; remark: listed apart in the source
binder,measurement,setting,value
B1,Kd,[1],3.4 nM
same,koff,[1],0.00447 s⁻¹
same,kon,[1],1.32e+06 ± 14800 M⁻¹ s⁻¹
same,Kd,fHbp m001820,0.531 nM
same,koff,fHbp m001820,0.000171 s⁻¹
same,kon,fHbp m001820,322300 ± 1430 M⁻¹ s⁻¹
same,Kd,fHbp m001848,0.344 nM
same,koff,fHbp m001848,0.000155 s⁻¹
same,kon,fHbp m001848,451100 ± 2150 M⁻¹ s⁻¹
same,Kd,fHbp m001941,0.464 nM
same,koff,fHbp m001941,0.00015 s⁻¹
same,kon,fHbp m001941,323000 ± 2300 M⁻¹ s⁻¹
same,Kd,fHbp m001213,0.594 nM
same,koff,fHbp m001213,0.000262 s⁻¹
same,kon,fHbp m001213,440700 ± 1810 M⁻¹ s⁻¹
same,Kd,fHbp m001529,0.338 nM
same,koff,fHbp m001529,0.000156 s⁻¹
same,kon,fHbp m001529,460900 ± 3880 M⁻¹ s⁻¹
same,Kd,fHbp m001604,0.493 nM
same,koff,fHbp m001604,0.000104 s⁻¹
same,kon,fHbp m001604,210000 ± 2260 M⁻¹ s⁻¹
same,Kd,fHbp m001608,0.154 nM
same,koff,fHbp m001608,8.28e-05 s⁻¹
same,kon,fHbp m001608,537900 ± 1940 M⁻¹ s⁻¹
same,Kd,[2],0.77 nM
same,koff,[2],0.000387 s⁻¹
same,kon,[2],501900 ± 2080 M⁻¹ s⁻¹
B2,Kd,[1],1.33 nM
same,koff,[1],0.00103 s⁻¹
same,kon,[1],767900 ± 4960 M⁻¹ s⁻¹
B3,Kd,[3],0.391 nM
same,koff,[3],0.000273 s⁻¹
same,kon,[3],697400 ± 1920 M⁻¹ s⁻¹
